According to the Immune Epitope Database (IEDB):

Tests used:
HLA-A*68:02 = test: IEDB peptide-MHC binding, purified MHC/direct/fluorescence; filed as Kd, often an IC50 or EC50 that approximates it; ≥ and ≤ were set here for values at or beyond the usual limits of such assays
HLA-A*02:01 = test: as above
HLA-B*46:01 = test: as above
HLA-A*29:02 = test: as above
HLA-A*02:11 = test: as above
HLA-A*02:03 [1] = test: as above
HLA-B*57:01 = test: as above
HLA-B*51:01 = test: as above
HLA-B*18:01 = test: as above
HLA-A*02:12 = test: as above
HLA-A*02:19 = test: as above
HLA-A*03:01 = test: as above
HLA-A*24:03 = test: as above
HLA-B*27:03 = test: as above
HLA-B*15:17 = test: as above
HLA-A*26:01 = test: as above
HLA-A*69:01 = test: as above
HLA-A*02:16 = test: as above
HLA-B*15:01 = test: as above
HLA-B*39:01 = test: as above; details: source organism: Entamoeba histolytica HM-1:IMSS
HLA-C*03:03 = test: as above
HLA-B*48:01 = test: IEDB peptide-MHC binding, purified MHC/competitive/fluorescence; filed as Kd, often an IC50 or EC50 that approximates it; ≥ and ≤ were set here for values at or beyond the usual limits of such assays
HLA-A*30:01 = test: as above
HLA-B*27:05 = test: IEDB peptide-MHC binding, purified MHC/direct/fluorescence; filed as Kd, often an IC50 or EC50 that approximates it; ≥ and ≤ were set here for values at or beyond the usual limits of such assays; details: source organism: Lake Victoria marburgvirus - Popp
HLA-B*58:01 = test: as above; details: source organism: Lake Victoria marburgvirus - Popp
HLA-A*01:01 = test: as above; details: source organism: Lake Victoria marburgvirus - Popp
HLA-A*31:01 = test: as above; details: source organism: Lake Victoria marburgvirus - Popp
HLA-B*08:01 = test: as above; details: source organism: Orthomarburgvirus marburgense
HLA-A*11:01 = test: as above; details: source organism: Lake Victoria marburgvirus - Popp
HLA-B*40:01 = test: as above; details: source organism: Lake Victoria marburgvirus - Popp
HLA-B*07:02 = test: as above; details: source organism: Lake Victoria marburgvirus - Popp
HLA-B*15:09 = test: as above; details: source organism: Orthomarburgvirus marburgense
HLA-A*23:01 = test: as above; details: source organism: Influenza A virus (A/Memphis/1/1986(H3N2))
HLA-A*02:03 [2] = test: IEDB peptide-MHC binding, purified MHC/competitive/fluorescence; filed as Kd, often an IC50 or EC50 that approximates it; ≥ and ≤ were set here for values at or beyond the usual limits of such assays; details: source organism: Human immunodeficiency virus 1
[3] = source organism: Listeria monocytogenes serotype 4b str. H7858
[4] = source organism: Entamoeba histolytica HM-1:IMSS
[5] = source organism: Francisella tularensis subsp. holarctica LVS
[6] = source organism: Francisella tularensis subsp. tularensis FSC033
[7] = source organism: Orthomarburgvirus marburgense
[8] = source organism: Lake Victoria marburgvirus - Popp
[9] = source organism: Influenza A virus (A/Memphis/1/1986(H3N2))

ERYPGGVSL
Kd (HLA-A*68:02; [3]): ≥ 20 µM
Kd (HLA-A*02:01; [3]): ≥ 20 µM
Kd (HLA-B*46:01; [3]): ≥ 20 µM
Kd (HLA-A*29:02; [3]): ≥ 20 µM
Kd (HLA-A*02:11; [3]): ≥ 20 µM
Kd (HLA-A*02:03 [1]; [3]): ≥ 20 µM
Kd (HLA-B*57:01; [3]): ≥ 20 µM
Kd (HLA-B*51:01; [3]): ≥ 20 µM
Kd (HLA-B*18:01; [3]): ≥ 20 µM
Kd (HLA-A*02:12; [3]): ≥ 20 µM
Kd (HLA-A*02:19; [3]): ≥ 20 µM
Kd (HLA-A*03:01; [3]): ≥ 20 µM
Kd (HLA-A*24:03; [3]): ≥ 20 µM
Kd (HLA-B*27:03; [3]): ≥ 20 µM
Kd (HLA-B*15:17; [3]): ≥ 20 µM
Kd (HLA-A*26:01; [3]): ≥ 20 µM
Kd (HLA-A*69:01; [3]): ≥ 20 µM
Kd (HLA-A*02:16; [3]): ≥ 20 µM
Kd (HLA-B*15:01; [3]): ≥ 20 µM

FIILSTGKY
Kd (HLA-A*02:01; [4]): ≥ 20 µM
Kd (HLA-A*02:11; [4]): ≥ 20 µM
Kd (HLA-B*57:01; [4]): ≥ 20 µM
Kd (HLA-B*18:01; [4]): ≥ 20 µM
Kd (HLA-A*02:12; [4]): ≥ 20 µM
Kd (HLA-A*02:19; [4]): ≥ 20 µM
Kd (HLA-A*03:01; [4]): ≥ 20 µM
Kd (HLA-B*27:03; [4]): ≥ 20 µM
Kd (HLA-B*15:17; [4]): 0.072 µM
Kd (HLA-A*02:16; [4]): ≥ 20 µM
Kd (HLA-B*39:01): ≥ 20 µM

FLYDISISL
Kd (HLA-A*02:01; [5]): 0.0011 µM
Kd (HLA-A*02:11; [6]): ≤ 0.001 µM
Kd (HLA-A*02:12; [6]): 0.003 µM
Kd (HLA-A*02:19; [6]): 0.007 µM
Kd (HLA-C*03:03; source organism: Francisella tularensis subsp. tularensis FSC198): ≤ 0.001 µM
Kd (HLA-A*69:01; [5]): 0.0157 µM

FPDGKPFTL
Kd (HLA-A*02:01; [3]): ≥ 20 µM
Kd (HLA-B*46:01; [3]): ≥ 20 µM
Kd (HLA-A*29:02; [3]): ≥ 20 µM
Kd (HLA-A*02:11; [3]): ≥ 20 µM
Kd (HLA-A*02:03 [1]; [3]): ≥ 20 µM
Kd (HLA-B*57:01; [3]): ≥ 20 µM
Kd (HLA-B*51:01; [3]): ≥ 20 µM
Kd (HLA-B*18:01; [3]): ≥ 20 µM
Kd (HLA-A*02:12; [3]): ≥ 20 µM
Kd (HLA-A*02:19; [3]): ≥ 20 µM
Kd (HLA-A*03:01; [3]): ≥ 20 µM
Kd (HLA-B*27:03; [3]): ≥ 20 µM
Kd (HLA-B*15:17; [3]): ≥ 20 µM
Kd (HLA-A*26:01; [3]): ≥ 20 µM
Kd (HLA-A*02:16; [3]): ≥ 20 µM
Kd (HLA-B*15:01; [3]): ≥ 20 µM

FQLYPPQIL
Kd (HLA-B*48:01; [4]): 0.077 µM
Kd (HLA-C*03:03; [4]): 0.033 µM

GELRKAICL
Kd (HLA-B*48:01; [7]): ≥ 20 µM
Kd (HLA-A*30:01; [7]): ≥ 20 µM
Kd (HLA-B*27:05): ≥ 20 µM
Kd (HLA-A*68:02; [8]): ≥ 20 µM
Kd (HLA-A*02:01; [8]): ≥ 20 µM
Kd (HLA-B*58:01): ≥ 20 µM
Kd (HLA-B*57:01; [8]): ≥ 20 µM
Kd (HLA-A*01:01): ≥ 20 µM
Kd (HLA-B*18:01; [8]): 9 µM
Kd (HLA-A*31:01): ≥ 20 µM
Kd (HLA-B*08:01): ≥ 20 µM
Kd (HLA-A*11:01): ≥ 20 µM
Kd (HLA-B*40:01): 0.074 µM
Kd (HLA-B*07:02): ≥ 20 µM
Kd (HLA-B*15:09): ≥ 20 µM
Kd (HLA-B*15:17; [8]): ≥ 20 µM
Kd (HLA-A*26:01; [7]): ≥ 20 µM
Kd (HLA-A*69:01; [8]): ≥ 20 µM

LQAMHGFPL
Kd (HLA-B*48:01; source organism: Escherichia coli O157:H7 str. EDL933): 0.0968 µM

NHDGIQAGV
Kd (HLA-A*68:02; [9]): ≥ 20 µM
Kd (HLA-A*02:01; [9]): ≥ 20 µM
Kd (HLA-B*46:01; [9]): ≥ 20 µM
Kd (HLA-A*29:02; [9]): ≥ 20 µM
Kd (HLA-A*02:11; [9]): ≥ 20 µM
Kd (HLA-A*02:03 [1]; [9]): ≥ 20 µM
Kd (HLA-B*57:01; [9]): ≥ 20 µM
Kd (HLA-B*51:01; [9]): ≥ 20 µM
Kd (HLA-B*18:01; [9]): ≥ 20 µM
Kd (HLA-A*02:12; [9]): ≥ 20 µM
Kd (HLA-A*23:01): ≥ 20 µM
Kd (HLA-A*02:19; [9]): ≥ 20 µM
Kd (HLA-A*03:01; [9]): ≥ 20 µM
Kd (HLA-A*24:03; [9]): ≥ 20 µM
Kd (HLA-B*27:03; [9]): ≥ 20 µM
Kd (HLA-B*15:17; [9]): ≥ 20 µM
Kd (HLA-A*26:01; [9]): ≥ 20 µM
Kd (HLA-A*69:01; [9]): ≥ 20 µM
Kd (HLA-A*02:16; [9]): ≥ 20 µM
Kd (HLA-B*15:01; [9]): ≥ 20 µM

RSLYNTIAVLY
Kd (HLA-A*02:03 [2]): 0.679 µM
Kd (HLA-A*30:01; source organism: Human immunodeficiency virus 1): 1.91 µM
